The values below come from patent US20210246451, “APTAMER FOR ADAMTS5 AND USE FOR APTAMER FOR ADAMTS5” (RIBOMIC INC., published 2021).

Sequences and labels used below:
T1: ADAMTS5 (UniProt Q9UNA0 Q9UNA0:262-622)
T1 sequence: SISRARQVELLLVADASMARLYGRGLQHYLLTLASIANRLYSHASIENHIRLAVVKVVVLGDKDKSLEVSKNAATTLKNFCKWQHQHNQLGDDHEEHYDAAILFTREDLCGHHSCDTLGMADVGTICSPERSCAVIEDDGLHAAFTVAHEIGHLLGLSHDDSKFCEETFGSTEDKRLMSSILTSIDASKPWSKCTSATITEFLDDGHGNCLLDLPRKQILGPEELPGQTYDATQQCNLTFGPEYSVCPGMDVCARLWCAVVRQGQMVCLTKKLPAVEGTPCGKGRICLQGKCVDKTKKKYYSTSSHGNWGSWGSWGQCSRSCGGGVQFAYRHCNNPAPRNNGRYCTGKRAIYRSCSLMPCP

The first series concerns the target T1, ADAMTS5. The experiment in a line: inhibition; method 1. Particulars: tags: R&D Systems. Here is the method: (§1) Whether an aptamer having the nucleotide sequence shown in SEQ ID NO: 1 inhibits the enzyme activity of ADAMTS5 was evaluated by the following method. As a substrate of ADAMTS5, the G1-IGD-G2 domain of aggrecan (manufactured by R&D systems) was used. ADAMTS5 specifically cleaves in between the 392nd glutamic acid and the 393rd alanine in the G1-IGD-G2 domain and produces two fragments. These fragments have faster electrophoretic mobility than uncleaved G1-IGD-G2. Thus, the enzyme activity of ADAMTS5 can be measured by quantifying the band intensity of G1-IGD-G2 by SDS-PAGE electrophoresis. The assay was performed in a solution A buffer with a reaction mixture volume of 10 μL. First, a mixture (10 μL) of a nucleic acid and ADAMTS5 was prepared and incubated at 25° C. for 15 min. To a substrate solution (5 μL) diluted with solution A was added a mixture (5 μL) of the nucleic acid and ADAMTS5 to start the enzyme reaction. The final concentration of ADAMTS5 in the reaction solution was 5 nM, and the final substrate concentration was 50 μg/mL. The reaction solution was incubated at 37° C. for 2 hr, 2 μL of solution D was added, and the mixture was heated at 95° C. for 2 min to stop the enzyme reaction of ADAMTS5. Solution D contains 0.25 M tris (pH 6.8), 10% SDS, 50% glycerol, 0.25% bromo phenolblue, and 20% 2-mercaptoethanol. The heat-treated reaction solution was electrophoresed by 7.5% SDS-PAGE and stained with SYPRO Orange (manufactured by Sigma-Aldrich). The staining was performed according to the manual of Sigma-Aldrich and detected using STORM840 manufactured by GE Healthcare. […] The amount of uncleaved substrate in each reaction solution was quantified from the band intensity and the standard curve. The substrate cleavage efficiency of ADAMTS5 under these reaction conditions was 80-100%. The inhibition rate of the test substance was calculated using the following equation.
The aptamers having the sequences shown in SEQ ID NOs: 28(l)-28(18) (SEQ ID NO: 28 lineage) and SEQ ID NOs: 29(1)-29(3) (SEQ ID NO: 29 lineage) were all produced by chemical synthesis.
The molecule CGUAGGGGCCUCCACAGCGUAAGCUUGGACUUAAACCACG (ssRNA, as SEQ 28 plus 2'-OMe at A4) [28(2)] yielded an activity of 68.7 % inhibition. On the same count and under the same terms, under CGUAGGGGCCUCCACAGCGUAAGCUUGGACUUAAACCACG (ssRNA, as SEQ 28 plus 2'-F at G7) [28(7)] stands 84.1 % inhibition; under CGUAGGGGCCUCCACAGCGUAAGCUUGGACUUAAACCACG (ssRNA, as SEQ 28 plus 2'-F at A14) [28(9)], 69.7 % inhibition.

CGUAGGGGCCUCCACAGCGUAAGCUUGGACUUAAACCACG (ssRNA, as SEQ 28 plus 2'-F at G28) [28(10)] had an activity of 76.6 % inhibition.

For the molecule CGUAGGGGCCUCCACAGCGUAAGCUUGGACUUAAACCACG (ssRNA, as SEQ 28 plus 2'-F at A33) [28(12)], the activity worked out at 67.8 % inhibition. On the same count and under the same terms, with CGUAGGGGCCUCCACAGCGUAAGCUUGGACUUAAACCACG (ssRNA, as SEQ 28 plus 2'-F at A29) [28(11)] the figure was 42.6 % inhibition; with CGUAGGGGCCUCCACAGCGUAAGCUUGGACUUAAACCACG (ssRNA, as SEQ 28 plus 2'-F at A4) [28(6)], 76.8 % inhibition; with CGUAGGGGCCUCCACAGCAUUCGCUUGGACACAAACCACG (ssRNA, as SEQ 29 plus 2'-F at G7,G28; 3' idT) [29(3)], 80.9 % inhibition.

With CGUAGGGGCCUCCACAGCGUAAGCUUGGACUUAAACCACG (ssRNA, as SEQ 28 plus 2'-F at G8) [28(8)], the activity stood at 71.1 % inhibition. CGUAGGGGCCUCCACAGCGUAAGCUUGGACUUAAACCACG (ssRNA, as SEQ 28 plus 2'-OMe at 4,20-22,31; 3' idT) [28(13)]: the activity is 86.1 % inhibition.

In turn, CGUAGGGGCCUCCACAGCGUAAGCUUGGACUUAAACCACG (ssRNA, as SEQ 28 plus 2'-OMe at 4,20-22,31; 2'-F at G7,G28; 3' idT) [28(14)] had an activity of 90.6 % inhibition. Molecule CGUAGGGGCCUCCACAGCAUUCGCUUGGACACAAACCACG (ssRNA, as SEQ 29 plus 2'-F at G7,G28 and 2'-OMe at A31; 3' idT) [29(2)] displayed an activity of 89.8 % inhibition.

In turn, CGUAGGGGCCUCCACAGCGUAAGCUUGGACUUAAACCACG (ssRNA, as SEQ 28 plus 2'-OMe at 4,20-22) [28(5)] came in with an activity of 77.3 % inhibition.

The target of a further series is T1, ADAMTS5. The series can be described thus: inhibition; 10 nM aptamer, aggrecan G1-IGD-G2 cleavage, method 1. Particulars: tags: R&D Systems. Here is the method: as §1
The aptamers having the sequences shown in SEQ ID NOs: 10(1)-10(8) and 11(1)-11(35), SEQ ID NO: 13-15 were all produced by chemical synthesis.
Molecule AUUGGGGCCUCCACAGCGCUCGCUUGGACUAAACCAAU (ssRNA, 2'-OMe at 1-5,15-26,32-38; 2'-F at 8-12,14,29,30; PS between 11 and 12) [11(22)] came in with an activity of 49.8 % inhibition.

AUUGGGGCCUCCACAGCGCUCGCUUGGACUAAACCAAU (ssRNA, 2'-OMe at 1-5,15-26,32-38; 2'-F at 8-12,14,29,30; PS between 13 and 14) [11(24)] had an activity of 46.3 % inhibition. The same measure, in the same setting: under AUUGGGGCCUCCACAGCGCUCGCUUGGACUAAACCAAU (ssRNA, 2'-OMe at 1-5,15-26,32-38; 2'-F at 8-12,14,29,30; PS between 27 and 28) [11(27)] stands 48.2 % inhibition. Still for that read-out and setting: under AUUGGGGCCUCCACAGCGCUCGCUUGGACUAAACCAAU (ssRNA, 2'-OMe at 1-5,15-26,32-38; 2'-F at 8-12,14,29,30; PS between 31 and 32) [11(31)] stands 56.3 % inhibition. As to AUUGGGGCCUCCACAGCGCUCGCUUGGACUAAACCAAU (ssRNA, 2'-OMe at 1-5,15-26,32-38; 2'-F at 8-12,14,29,30; PS between 28 and 29) [11(28)], the activity was 44.8 % inhibition.

Consider AUUGGGGCCUCCACAGCGCUCGCUUGGACUAAACCAAU (ssRNA, 2'-OMe at 1-5,15-26,32-38; 2'-F at 8-12,14,29,30; PS between 12 and 13) [11(23)], for which the activity came out at 47.9 % inhibition. Still for that read-out and setting: under AUUGGGGCCUCCACAGCGCUCGCUUGGACUAAACCAAU (ssRNA, 2'-OMe at 1-5,15-26,32-38; 2'-F at 8-12,14,29,30; PS between 29 and 30) [11(29)] stands 56.5 % inhibition. In turn, AUUGGGGCCUCCACAGCGCUCGCUUGGACUAAACCAAU (ssRNA, 2'-OMe at 1-5,15-26,32-38; 2'-F at 8-12,14,29,30; PS between 26 and 27) [11(26)] gave an activity of 47.2 % inhibition.

The next series has as its target T1, ADAMTS5. The series can be described thus: inhibition; 10 nM. The note with it: tags: R&D Systems. Here is the method: as §1
The nucleic acids shown in SEQ ID NOs: 3(1)-3(16) were all produced by chemical synthesis. Whether these nucleic acids inhibit the enzyme activity of ADAMTS5 was determined by a method similar to that in Example 1.
GGAUUGGGGCCUCCACAGCUGCUCAGCUUGGACUAAACCAAUCC (ssRNA, 2'-OMe at 1-7,17-28,35,36,38-44; 2'-F other pyrimidines) [3(15)] gave an activity of 27.6 % inhibition. Take GGAUUGGGGCCUCCACAGCUGCUCAGCUUGGACUAAACCAAUCC (ssRNA, 2'-OMe at 1-7,17-28,30,36,38-44; 2'-F other pyrimidines) [3(12)]: the activity was found to be 57.5 % inhibition. With GGAUUGGGGCCUCCACAGCUGCUCAGCUUGGACUAAACCAAUCC (ssRNA, 2'-OMe at 1-8,17-28,36,38-44; 2'-F other pyrimidines) [3(9)], the activity amounted to 25.8 % inhibition. Regarding GGAUUGGGGCCUCCACAGCUGCUCAGCUUGGACUAAACCAAUCC (ssRNA, 2'-OMe at 1-7,17-28,32,36,38-44; 2'-F other pyrimidines) [3(14)], the activity was found to be 1.2 % inhibition.

In turn, GGAUUGGGGCCUCCACAGCUGCUCAGCUUGGACUAAACCAAUCC (ssRNA, 2'-OMe at 1-7,17-28,36,38-44; 2'-F other pyrimidines) [3(8)] returned an activity of 52.8 % inhibition. GGAUUGGGGCCUCCACAGCUGCUCAGCUUGGACUAAACCAAUCC (ssRNA, 2'-OMe at 1-7,17-28,31,36,38-44; 2'-F other pyrimidines) [3(13)] showed an activity of 37 % inhibition.

On to GGAUUGGGGCCUCCACAGCUGCUCAGCUUGGACUAAACCAAUCC (ssRNA, 2'-OMe at 1-7,17-28,36-44; 2'-F other pyrimidines) [3(16)], for which the activity came out at 53.6 % inhibition.

GGAUUGGGGCCUCCACAGCUGCUCAGCUUGGACUAAACCAAUCC (ssRNA, 2'-OMe at 1-7,15,17-28,36,38-44; 2'-F other pyrimidines) [3(11)] yielded an activity of 48.1 % inhibition. As to GGAUUGGGGCCUCCACAGCUGCUCAGCUUGGACUAAACCAAUCC (ssRNA, 2'-OMe at 1-7,9,17-28,36,38-44; 2'-F other pyrimidines) [3(10)], the activity is 25.6 % inhibition.

Another series concerns the target T1, ADAMTS5. The series can be described thus: inhibition; 30 nM. The note with it: tags: R&D Systems. Here is the method:
as §1
Whether these aptamers inhibit the enzyme activity of ADAMTS5 was tested by a method similar to that in Example 1. The final concentration of the nucleic acid was fixed to 30 nM in the test.
As to GGCUUGGGGCCUCCACAGCUGCUCAGCUUGGACUAAACCAAGCC (ssRNA, 2'-F pyrimidines) [SEQ ID NO: 4], the activity amounted to 23 % inhibition.

For a further series, the target named is T1, ADAMTS5. The series can be described thus: SPR; RU ratio >=40%. The note with it: tags: R&D Systems. Background: SPR reads the build-up and loss of mass on a sensor chip optically.
As for GGGUAUUGGGGCCUCCACAGUAAAUUCUUGGACUAAACCAACUCGA (ssRNA, 2'-F pyrimidines) [SEQ ID NO: 37], the binding result is recorded as “binds”.

Regarding GGGUAUUGGGGCCUCCACAGAACUUUCUUGGACUAAACCAACUCGA (ssRNA, 2'-F pyrimidines) [SEQ ID NO: 44], the binding result is “binds”. Take GGGUAUUGGGGCCUCCACAGAAAAUUCUUGGACUAAACCAACUCGA (ssRNA, 2'-F pyrimidines) [SEQ ID NO: 43]: the binding result is “binds”. As to GGGUAUUGGGGCCUCCACAGAAAAGUCUUGGACUAAACCAACUCGA (ssRNA, 2'-F pyrimidines) [SEQ ID NO: 45], the binding result is reported as “binds”. GGGUAUUGGGGCCUCCACAGAUAAUUCUUGGACUAAACCAACUCGA (ssRNA, 2'-F pyrimidines) [SEQ ID NO: 42]: the binding result is recorded as “binds”. For GGGUAUUGGGGCCUCCACGCUAGAAGGCUGGACUAAACCAACUCGA (ssRNA, 2'-F pyrimidines) [SEQ ID NO: 38], the binding result was “binds”.

On to GGGUAUUGGGGCCUCCACGCAAUGGUGCUGGACUAAACCAACUCGA (ssRNA, 2'-F pyrimidines) [SEQ ID NO: 40], for which the binding result is on record as “binds”.

As to GGGUAUUGGGGCCUCCACAUGGAUACAUUGGACUAAACCAACUCGA (ssRNA, 2'-F pyrimidines) [SEQ ID NO: 41], the binding result is given as “binds”. With GGGUAUUGGGGCCUCCACGUAACUAAACUGGACUAAACCAACUCGA (ssRNA, 2'-F pyrimidines) [SEQ ID NO: 39], the binding result is “binds”.
